B1: p21 promoter p53 5' site 25 bp oligonucleotide (dsDNA)
DNA 1: CAGGAACATGTCCCAACATGTTGAA
DNA 2: TTCAACATGTTGGGACATGTTCCTG
B2: p21 promoter p53 3' site (dsDNA)
DNA 1: AGACTGGGCATGTCTGGGCA
DNA 2: TGCCCAGACATGCCCAGTCT

What was measured:
[1] = target: T1, p53 (full-length, Flag-tagged) (Homo sapiens, UniProt P04637 P04637:1-393); test: EMSA; p53 with or without acetylation by p300; site described as p53 5' binding site, gel outcome not shown in the text; details: tags: Flag, expressed in Sf9 cells; label: 32P end label
[2] = target: T1, p53 (full-length, Flag-tagged); test: footprint; DNase I footprinting on p21 promoter as chromatin or naked DNA; described as p53 3' binding site, outcome not shown in the text; details: tags: Flag, expressed in Sf9 cells

Binder | binding result [1] | binding result [2]
B1 | binds | –
B2 | – | binds

From patent publication US20030228627, “Assay for p53 function in cells” (published 2003)
